The values below come from patent US20060234944A1, “Beta-secretase inhibitors and methods of use” (Oklahoma Medical Reseach Foundation, priority 2001, published 2006).

In this experiment the target is memapsin 2 (spontaneously activated promemapsin 2-T1; amino acids 43-456 and 45-456 of SEQ ID NO: 8) (human) (UniProt P56817). The experiment is described as follows: kinetic inhibition experiment (procedure of Ermolieff et al.).

Where no end group is shown, it is not given here. [ ]: non-standard residue; d: D form. FAM = 5-(and 6-)carboxyfluorescein; Ahx = NCCCCCC(=O)O

Sequence of memapsin 2 (spontaneously activated promemapsin 2-T1; amino acids 43-456 and 45-456 of SEQ ID NO: 8) (human) (P56817 41-454): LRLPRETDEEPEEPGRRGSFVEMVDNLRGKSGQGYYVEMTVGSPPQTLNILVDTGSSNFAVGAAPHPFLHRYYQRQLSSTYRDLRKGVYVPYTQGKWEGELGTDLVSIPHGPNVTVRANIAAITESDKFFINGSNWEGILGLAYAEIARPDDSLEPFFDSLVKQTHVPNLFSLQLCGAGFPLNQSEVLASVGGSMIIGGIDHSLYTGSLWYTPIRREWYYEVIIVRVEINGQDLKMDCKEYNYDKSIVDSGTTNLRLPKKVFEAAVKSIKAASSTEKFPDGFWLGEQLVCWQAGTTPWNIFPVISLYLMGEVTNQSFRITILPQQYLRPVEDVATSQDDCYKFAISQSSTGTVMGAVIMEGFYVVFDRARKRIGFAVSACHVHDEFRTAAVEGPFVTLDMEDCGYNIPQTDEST

B1: CPI-2: FAM-Ahx-(ELDL*AVEF)-GG-(…) (peptide)
peptide: {FAM-Ahx}-ELDLAVEFGG[dR][dR][dR][dR][dR][dR][dR][dR][dR]
modifications: numbers in words are those of the source; also: hydroxyethylene isostere between Leu5 and Ala6
B1: the Ki apparent turned out to be 58 nM. The Ki is a measure of affinity in units of concentration, obtained from inhibition or displacement. Higher therefore signals weaker binding. For the molecule ELDLAVEFGG[dR][dR][dR][dR][dR][dR][dR][dR][dR] (also: hydroxyethylene isostere between Leu4 and Ala5) [CPI-3: (ELDL*AVEF)-GG-(…)], the Ki turned out to be 35 nM. This lies in the double-digit nanomolar range.
